Paper PMC9482650, “Quantitative fragmentomics allow affinity mapping of interactomes” (Nature Communications, 2022)

T1: ARHGAP21, Q5T5U3
T1 sequence (Q5T5U3 45-169, limits assumed, looked up): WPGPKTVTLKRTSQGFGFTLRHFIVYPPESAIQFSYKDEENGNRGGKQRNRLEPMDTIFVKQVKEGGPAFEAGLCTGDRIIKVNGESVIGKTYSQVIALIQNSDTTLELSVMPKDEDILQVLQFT

T2: DFNB31_2, Q9P202
T2 sequence (Q9P202 274-371, limits assumed, looked up): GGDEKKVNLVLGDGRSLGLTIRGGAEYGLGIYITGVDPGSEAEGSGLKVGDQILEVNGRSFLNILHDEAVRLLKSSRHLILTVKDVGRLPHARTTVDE

T3: GRIP1_7, Q9Y3R0
T3 sequence (Q9Y3R0 999-1096, limits assumed, looked up): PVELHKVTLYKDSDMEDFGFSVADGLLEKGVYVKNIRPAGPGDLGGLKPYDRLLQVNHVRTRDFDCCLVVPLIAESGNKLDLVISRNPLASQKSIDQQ

T4: HTRA3, P83110
T4 sequence (P83110 354-453, limits assumed, looked up): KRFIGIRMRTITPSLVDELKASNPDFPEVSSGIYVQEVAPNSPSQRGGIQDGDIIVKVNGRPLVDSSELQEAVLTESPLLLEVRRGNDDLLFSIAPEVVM

T5: LIN7A, O14910
T5 sequence (O14910 103-200, limits assumed, looked up): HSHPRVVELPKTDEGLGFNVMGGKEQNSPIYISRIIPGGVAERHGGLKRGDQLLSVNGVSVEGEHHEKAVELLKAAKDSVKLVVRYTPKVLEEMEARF

T6: PDZD2_2, O15018
T6 sequence (O15018 329-429, limits assumed, looked up): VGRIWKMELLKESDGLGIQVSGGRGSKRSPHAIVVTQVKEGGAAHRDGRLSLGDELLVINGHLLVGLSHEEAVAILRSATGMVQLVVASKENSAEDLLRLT

T7: SYNJ2BP, P57105
T7 sequence (P57105 8-110, limits assumed, looked up): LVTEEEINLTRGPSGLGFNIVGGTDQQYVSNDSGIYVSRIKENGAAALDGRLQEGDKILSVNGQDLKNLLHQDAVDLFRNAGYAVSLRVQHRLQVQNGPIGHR

T8: TX1BP3, O14907
T8 sequence (O14907 10-122, limits assumed, looked up): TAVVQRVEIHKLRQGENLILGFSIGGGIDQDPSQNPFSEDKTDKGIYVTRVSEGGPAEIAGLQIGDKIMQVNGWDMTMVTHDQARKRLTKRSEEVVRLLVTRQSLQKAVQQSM


Assays:
Assay in all cases: holdup assay
Design in all cases: key: below the threshold = too weak to quantify, mostly under pKd 3.1 to 4
Conditions in all cases: plain residues with an end cap or a label only (N-terminal biotin on a linker: ado-ado)
ARHGAP21, Q5T5U3 = molecular target: T1, ARHGAP21, Q5T5U3
DFNB31_2, Q9P202 = molecular target: T2, DFNB31_2, Q9P202
DLG2_2, Q15700 = molecular target: DLG2_2, Q15700
DLG4_3, P78352 = molecular target: DLG4_3, P78352
DLG5_1, Q8TDM6 = molecular target: DLG5_1, Q8TDM6
FRMPD2_1, Q68DX3 = molecular target: FRMPD2_1, Q68DX3
FRMPD4, Q14CM0 = molecular target: FRMPD4, Q14CM0
GORASP1, Q9BQQ3 = molecular target: GORASP1, Q9BQQ3
GRID2IP_2, A4D2P6 = molecular target: GRID2IP_2, A4D2P6
GRIP1_7, Q9Y3R0 = molecular target: T3, GRIP1_7, Q9Y3R0
GRIP2_3, Q9C0E4 = molecular target: GRIP2_3, Q9C0E4
HTRA1, Q92743 = molecular target: HTRA1, Q92743
HTRA3, P83110 = molecular target: T4, HTRA3, P83110
IL16_3, Q14005 = molecular target: IL16_3, Q14005
Inadl_10, Q8NI35 = molecular target: Inadl_10, Q8NI35
Inadl_2, Q8NI35 = molecular target: Inadl_2, Q8NI35
Inadl_5, Q8NI35 = molecular target: Inadl_5, Q8NI35
Inadl_8, Q8NI35 = molecular target: Inadl_8, Q8NI35
LIN7A, O14910 = molecular target: T5, LIN7A, O14910
LNX1_2, Q8TBB1 = molecular target: LNX1_2, Q8TBB1
MAGI2_3, Q86UL8 = molecular target: MAGI2_3, Q86UL8
MAGI2_5, Q86UL8 = molecular target: MAGI2_5, Q86UL8
MAGI3_2, Q5TCQ9 = molecular target: MAGI3_2, Q5TCQ9
PDZD2_2, O15018 = molecular target: T6, PDZD2_2, O15018
PICK1, Q9NRD5 = molecular target: PICK1, Q9NRD5
SCRIB_2, Q14160 = molecular target: SCRIB_2, Q14160
SYNJ2BP, P57105 = molecular target: T7, SYNJ2BP, P57105
TJP1_2, Q07157 = molecular target: TJP1_2, Q07157
TX1BP3, O14907 = molecular target: T8, TX1BP3, O14907

HTRA1, Q92743, sequence (Q92743 360-477): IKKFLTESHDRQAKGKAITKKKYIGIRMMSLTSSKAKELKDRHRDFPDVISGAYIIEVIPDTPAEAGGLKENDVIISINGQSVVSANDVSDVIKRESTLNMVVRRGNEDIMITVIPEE
GRID2IP_2, A4D2P6, sequence (A4D2P6 272-370): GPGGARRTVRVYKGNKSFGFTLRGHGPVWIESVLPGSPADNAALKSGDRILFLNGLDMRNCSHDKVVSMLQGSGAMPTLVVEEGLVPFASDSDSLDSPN
IL16_3, Q14005, sequence (Q14005 1107-1207): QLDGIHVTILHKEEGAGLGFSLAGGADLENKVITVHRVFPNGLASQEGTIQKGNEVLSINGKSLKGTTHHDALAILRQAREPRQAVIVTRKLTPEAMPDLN
DLG5_1, Q8TDM6, sequence (Q8TDM6 617-713): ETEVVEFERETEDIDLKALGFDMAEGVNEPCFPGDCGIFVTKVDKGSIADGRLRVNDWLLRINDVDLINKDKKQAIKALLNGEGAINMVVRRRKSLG
FRMPD2_1, Q68DX3, sequence (Q68DX3 770-861): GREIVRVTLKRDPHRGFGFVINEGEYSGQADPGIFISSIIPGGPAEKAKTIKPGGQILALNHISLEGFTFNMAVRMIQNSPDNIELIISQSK
Inadl_5, Q8NI35, sequence (Q8NI35 673-780): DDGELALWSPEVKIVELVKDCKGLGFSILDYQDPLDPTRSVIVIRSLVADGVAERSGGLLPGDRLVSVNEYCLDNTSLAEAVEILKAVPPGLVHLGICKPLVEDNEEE
LNX1_2, Q8TBB1, sequence (Q8TBB1 371-470): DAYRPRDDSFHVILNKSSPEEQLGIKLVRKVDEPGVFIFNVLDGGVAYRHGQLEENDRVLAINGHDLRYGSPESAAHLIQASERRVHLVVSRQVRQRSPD
MAGI2_5, Q86UL8, sequence (Q86UL8 915-1017): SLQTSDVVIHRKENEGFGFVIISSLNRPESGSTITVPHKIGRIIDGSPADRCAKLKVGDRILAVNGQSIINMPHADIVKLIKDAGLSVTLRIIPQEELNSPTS
Inadl_2, Q8NI35, sequence (Q8NI35 238-335): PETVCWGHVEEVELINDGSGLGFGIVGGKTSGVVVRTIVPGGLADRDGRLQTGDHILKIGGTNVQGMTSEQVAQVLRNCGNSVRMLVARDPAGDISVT
DLG2_2, Q15700, sequence (Q15700 189-283): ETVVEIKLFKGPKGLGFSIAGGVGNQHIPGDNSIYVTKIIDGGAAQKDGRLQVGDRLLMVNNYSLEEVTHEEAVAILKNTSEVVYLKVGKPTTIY
GRIP2_3, Q9C0E4, sequence (Q9C0E4 238-339): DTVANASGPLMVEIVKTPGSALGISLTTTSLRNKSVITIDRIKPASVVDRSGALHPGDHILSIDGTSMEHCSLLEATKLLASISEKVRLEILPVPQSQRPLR
SCRIB_2, Q14160, sequence (Q14160 857-960): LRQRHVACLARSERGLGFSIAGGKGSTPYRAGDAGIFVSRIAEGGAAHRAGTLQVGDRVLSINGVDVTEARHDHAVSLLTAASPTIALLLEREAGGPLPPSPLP
DLG4_3, P78352, sequence (P78352 306-403): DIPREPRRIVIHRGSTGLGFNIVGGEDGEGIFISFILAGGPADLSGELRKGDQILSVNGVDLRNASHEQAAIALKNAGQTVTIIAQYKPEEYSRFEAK
Inadl_10, Q8NI35, sequence (Q8NI35 1673-1763): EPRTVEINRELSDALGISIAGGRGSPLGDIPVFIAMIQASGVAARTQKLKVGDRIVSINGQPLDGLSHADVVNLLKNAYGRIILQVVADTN
PICK1, Q9NRD5, sequence (Q9NRD5 17-115): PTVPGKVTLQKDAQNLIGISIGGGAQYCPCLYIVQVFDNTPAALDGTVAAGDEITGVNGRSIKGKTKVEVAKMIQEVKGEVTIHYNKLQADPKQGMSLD
GORASP1, Q9BQQ3, sequence (Q9BQQ3 1-208): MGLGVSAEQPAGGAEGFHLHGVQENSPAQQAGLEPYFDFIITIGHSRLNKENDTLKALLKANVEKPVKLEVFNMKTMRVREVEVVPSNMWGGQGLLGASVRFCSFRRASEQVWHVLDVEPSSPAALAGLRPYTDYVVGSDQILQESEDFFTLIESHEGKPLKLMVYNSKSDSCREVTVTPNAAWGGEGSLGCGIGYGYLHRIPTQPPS
Inadl_8, Q8NI35, sequence (Q8NI35 1425-1530): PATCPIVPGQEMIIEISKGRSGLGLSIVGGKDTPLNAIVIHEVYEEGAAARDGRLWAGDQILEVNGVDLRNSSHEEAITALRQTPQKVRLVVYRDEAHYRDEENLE
TJP1_2, Q07157, sequence (Q07157 181-274): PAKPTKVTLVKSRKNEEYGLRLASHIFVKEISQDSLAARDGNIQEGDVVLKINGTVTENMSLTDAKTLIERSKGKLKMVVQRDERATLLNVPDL
MAGI3_2, Q5TCQ9, sequence (Q5TCQ9 398-503): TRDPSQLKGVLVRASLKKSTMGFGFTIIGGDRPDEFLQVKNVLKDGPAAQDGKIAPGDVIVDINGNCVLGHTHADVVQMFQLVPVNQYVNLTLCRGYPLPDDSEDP
MAGI2_3, Q86UL8, sequence (Q86UL8 600-682): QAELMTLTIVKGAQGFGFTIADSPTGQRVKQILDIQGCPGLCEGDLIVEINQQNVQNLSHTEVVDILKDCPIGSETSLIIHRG
FRMPD4, Q14CM0, sequence (Q14CM0 67-160): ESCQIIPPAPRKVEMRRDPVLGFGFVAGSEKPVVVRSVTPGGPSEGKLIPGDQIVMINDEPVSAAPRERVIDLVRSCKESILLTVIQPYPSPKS

| pKd (ARHGAP21, Q5T5U3) | pKd (DFNB31_2, Q9P202) | pKd (DLG2_2, Q15700) | pKd (DLG4_3, P78352) | pKd (DLG5_1, Q8TDM6) | pKd (FRMPD2_1, Q68DX3) | pKd (FRMPD4, Q14CM0) | pKd (GORASP1, Q9BQQ3) | pKd (GRID2IP_2, A4D2P6) | pKd (GRIP1_7, Q9Y3R0) | pKd (GRIP2_3, Q9C0E4) | pKd (HTRA1, Q92743) | pKd (HTRA3, P83110) | pKd (IL16_3, Q14005) | pKd (Inadl_10, Q8NI35) | pKd (Inadl_2, Q8NI35) | pKd (Inadl_5, Q8NI35) | pKd (Inadl_8, Q8NI35) | pKd (LIN7A, O14910) | pKd (LNX1_2, Q8TBB1) | Binder | further results |
| --- | --- | --- | --- | --- | --- | --- | --- | --- | --- | --- | --- | --- | --- | --- | --- | --- | --- | --- | --- | --- | --- |
| 4.51 | below the threshold | below the threshold | below the threshold | below the threshold | below the threshold | 4.43 | below the threshold | below the threshold | below the threshold | below the threshold | 4.68 | below the threshold | below the threshold | below the threshold | 3.99 | below the threshold | below the threshold | below the threshold | 3.68 | GDGLDDEIAV [NOS1AP, O75052] | pKd (MAGI2_3, Q86UL8): below the threshold; pKd (MAGI2_5, Q86UL8): below the threshold; pKd (MAGI3_2, Q5TCQ9): 3.98; pKd (PDZD2_2, O15018): 3.55; pKd (PICK1, Q9NRD5): 4.38; pKd (SCRIB_2, Q14160): below the threshold; pKd (SYNJ2BP, P57105): below the threshold; pKd (TJP1_2, Q07157): below the threshold; pKd (TX1BP3, O14907): below the threshold |
| 3.94 | below the threshold | below the threshold | below the threshold | below the threshold | below the threshold | below the threshold | below the threshold | 4.28 | below the threshold | below the threshold | below the threshold | below the threshold | below the threshold | below the threshold | below the threshold | below the threshold | 4.61 | below the threshold | below the threshold | YPKQMPLSQV [FZD8, Q9H461] | pKd (MAGI2_3, Q86UL8): below the threshold; pKd (MAGI2_5, Q86UL8): below the threshold; pKd (MAGI3_2, Q5TCQ9): 4.44; pKd (PDZD2_2, O15018): 4.23; pKd (PICK1, Q9NRD5): below the threshold; pKd (SCRIB_2, Q14160): below the threshold; pKd (SYNJ2BP, P57105): below the threshold; pKd (TJP1_2, Q07157): below the threshold; pKd (TX1BP3, O14907): below the threshold |
| 4.04 | below the threshold | 3.93 | below the threshold | below the threshold | below the threshold | below the threshold | below the threshold | 3.95 | below the threshold | below the threshold | below the threshold | below the threshold | below the threshold | below the threshold | below the threshold | below the threshold | 4.77 | below the threshold | below the threshold | QNRIITKTDV [SMCHD1, A6NHR9] | pKd (MAGI2_3, Q86UL8): below the threshold; pKd (MAGI2_5, Q86UL8): below the threshold; pKd (MAGI3_2, Q5TCQ9): 4.15; pKd (PDZD2_2, O15018): 4.4; pKd (PICK1, Q9NRD5): below the threshold; pKd (SCRIB_2, Q14160): below the threshold; pKd (SYNJ2BP, P57105): 4.24; pKd (TJP1_2, Q07157): below the threshold; pKd (TX1BP3, O14907): 3.51 |
| 3.56 | 3.62 | 4.03 | below the threshold | below the threshold | below the threshold | 3.53 | 3.79 | below the threshold | 3.7 | below the threshold | 4.78 | 5.54 | 3.55 | 3.75 | below the threshold | 3.87 | 4.16 | below the threshold | 3.78 | QYPGSPDSWV [PKP4, Q99569] | pKd (MAGI2_3, Q86UL8): below the threshold; pKd (MAGI2_5, Q86UL8): below the threshold; pKd (MAGI3_2, Q5TCQ9): below the threshold; pKd (PDZD2_2, O15018): 6.06; pKd (PICK1, Q9NRD5): below the threshold; pKd (SCRIB_2, Q14160): 4.82; pKd (SYNJ2BP, P57105): 4.94; pKd (TJP1_2, Q07157): 3.76; pKd (TX1BP3, O14907): 4.98 |
| 3.91 | below the threshold | below the threshold | below the threshold | below the threshold | below the threshold | 3.77 | below the threshold | below the threshold | below the threshold | below the threshold | 3.97 | below the threshold | below the threshold | below the threshold | below the threshold | below the threshold | below the threshold | 3.53 | below the threshold | LGHTPFVDEL [UQCRC2, P22695] | pKd (MAGI2_3, Q86UL8): below the threshold; pKd (MAGI2_5, Q86UL8): 3.47; pKd (MAGI3_2, Q5TCQ9): below the threshold; pKd (PDZD2_2, O15018): below the threshold; pKd (PICK1, Q9NRD5): 4.09; pKd (SCRIB_2, Q14160): below the threshold; pKd (SYNJ2BP, P57105): 4; pKd (TJP1_2, Q07157): below the threshold; pKd (TX1BP3, O14907): below the threshold |
